Experimental data taken from patent publication US20130309230A1 (published 2013).

Experiments:
AA, + MMP-9 = test: SPR; + MMP-9 (activated AA)
AA, - MMP-9 = test: SPR; - MMP-9 (uncleaved, masked AA)

- Kd (AA, + MMP-9): 0.35 nM
- Kd (AA, - MMP-9): > 200 nM
B1: VEGF (ligand)
chain: APMAEGGGQNHHEVVKFMDVYQRSYCHPIETLVDIFQEYPDEIEYIFKPSCVPLMRCGGCCNDEGLECVPTEESNITMQIMRIKPHQGQHIGEMSFLQHNKCECRPKKDRARQENPCGPCSERRKHLFVQDPQTCKCSCKNTDSRCKARQLELNERTCRCDKPRR
